For 1 substance, macrophage migration in chemotaxis assay (ZAMS medium with 5 µg/ml myostatin, with or without 350 protein) results are on record in patent US20090136481A1.

In the test the target is recombinant myostatin. Nature of the test: cell-based or functional assay.

Take “350 protein (dominant negative peptide of myostatin C-terminally truncated at amino acid 350; amino acids 267-350 of bovine myostatin) (from UniProt O18836 267-350)”: the macrophage migration in chemotaxis assay (ZAMS medium with 5 µg/ml myostatin, with or without 350 protein) amounted to 20 fold.
